The target in assay [1] is T1, 人OX40 (Jurkat-OX40细胞) (human, UniProt P43489 29-277).
T1 construct: whole, on cells; also called OX40受体; CD134
T1 sequence (looked up): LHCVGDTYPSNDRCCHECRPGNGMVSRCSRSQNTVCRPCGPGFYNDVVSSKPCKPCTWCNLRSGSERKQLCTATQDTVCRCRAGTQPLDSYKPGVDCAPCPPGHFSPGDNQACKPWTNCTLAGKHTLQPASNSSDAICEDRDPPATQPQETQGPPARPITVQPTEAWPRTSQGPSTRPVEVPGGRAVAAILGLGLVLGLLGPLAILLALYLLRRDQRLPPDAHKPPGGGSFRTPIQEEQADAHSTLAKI
Kind of assay: FACS on Jurkat-OX40 cells (Fig. 3).

The target in assay [2] is T2, 人源OX40的胞外区与人Fc融合蛋白(OX40-hFc) (human, UniProt P43489 29-214).
T2 construct: extracellular domain; Coated on ELISA plates at 2 μg/mL; not shown: human Fc
T2 sequence (looked up): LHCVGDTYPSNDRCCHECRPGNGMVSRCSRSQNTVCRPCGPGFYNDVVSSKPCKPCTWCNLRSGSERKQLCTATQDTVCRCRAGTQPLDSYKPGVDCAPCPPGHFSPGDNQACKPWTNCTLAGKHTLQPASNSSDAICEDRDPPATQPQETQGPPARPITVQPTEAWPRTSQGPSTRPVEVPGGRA
Kind of assay: ELISA on coated OX40-hFc (Fig. 1). (In general: In an ELISA, binding on a coated surface is turned into a signal by an enzyme label.)

Assay [3] addresses T1, 人OX40 (Jurkat-OX40细胞). Kind of assay: FACS on Jurkat-OX40 cells (Fig. 9).
The target in assay [4] is T3, 人源OX40的胞外区与小鼠Fc融合蛋白(OX40-ECD-mFc) (human, UniProt P43489 29-214).
T3 construct: extracellular domain; also called OX40-mFc; not shown: mouse Fc
T3 sequence (looked up): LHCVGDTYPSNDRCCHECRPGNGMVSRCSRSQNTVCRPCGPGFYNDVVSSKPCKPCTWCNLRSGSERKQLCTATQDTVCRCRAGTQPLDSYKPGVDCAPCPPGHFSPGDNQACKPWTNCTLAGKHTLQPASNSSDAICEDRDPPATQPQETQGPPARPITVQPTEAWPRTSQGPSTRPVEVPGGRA
Kind of assay: ELISA on OX40-mFc (Fig. 7).

B1: 抗人OX40鼠源抗体17C1 (antibody, V domains shown)
VH: DVQLQESGPGLVKPSQSLSLTCTVTGYSITSDYAWNWIRQFPGNKLEWMGYITYSGFTRYNPSLKSRFSITRDTSKNQFFLQLNSVTTEDTATYYCVYPAWFAYWGQGTLVTVSA
VL: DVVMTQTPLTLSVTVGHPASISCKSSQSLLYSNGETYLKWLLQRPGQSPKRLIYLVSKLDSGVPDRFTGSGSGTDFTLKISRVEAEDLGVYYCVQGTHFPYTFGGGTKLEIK
notes: Mouse hybridoma antibody purified by Protein A
As for B1, the binding result (in the assay with 人OX40 (Jurkat-OX40细胞) [1]; in assay [2]) was “binds” throughout.

B2: 抗人OX40人源化抗体15A7 (antibody, IgG1, V domains shown)
VH: QVQLQESGPGLVKPSETLSLTCTVSGYSITSDYWNWIRQPPGKGLEYMGYISYSGSTSYNPSLKSRITISRDTSKNQYSLKLSSVTAADTAVYYCARGGYYYGSSYPYYFDYWGQGTLVTVSS
VL: DIQMTQSPSTLSASVGDRVTITCKASQNVGTAVAWYQQKPGKAPKLLIYSPSNRYTGVPSRFSGSGSGTEFTLTISSLQPDDFATYYCQQYSSYRTFGGGTKVEIK
notes: expressed in 293 cells; also called hu15A7; hu15A7-hIgG1
Take B2: the binding result (with 人OX40 (Jurkat-OX40细胞) [3]; in assay [4]) was “binds” in each case.

B3: 抗人OX40鼠源抗体3D9 (antibody, V domains shown)
VH: QVQLQESGPGLVAPSQSLSITCTVSGFSLTTYGITWVRQPPGKGLEWLGVIWDDGSTNYHSALISRLSISKNNYKSQVFLTLNSLQTDDTATYYCAKLLPYYFDSWGQGTTLTVSS
VL: DIVMTQSPSSLSASLGDRVTISCRASQDISNYLNWYQQKPNGTVKLLIYYTSRLLSGVPSRFSGSGSGTDYSLTISSLEQEDIATYFCQQGYTLPPTFGGGTKLEIK
notes: as for B1
Consider B3, for which the binding result (in the assay with 人OX40 (Jurkat-OX40细胞) [1]; in assay [2]) was “binds” each time.

B4: 抗人OX40人源化抗体1A2 (antibody, V domains shown)
VH: QVTLKESGPTLVKPTQTLTLTCTFSGFSLATSGVAVGWIRQPPGKALEWLAHIWWDDVKRYNPSLQGRLTITKDTSKNQVVLTMTNMDPVDTATYYCARMDWDGLAYWGQGTLVTVSS
VL: EIVLTQSPATLSLSPGERATLSCSVSSSISSSNLHWYQQKPGQAPRPWIYGTSNLATGIPARFSGSGSGTDYTLTISSLEPEDFAVYYCQQYSSYPFTFGGGTKVEIK
notes: expressed in 293 cells; also called hu1A2; 1A2人源化抗体
With B4, the binding result (in the assay with 人OX40 (Jurkat-OX40细胞) [3]; in assay [4]) was “binds” in each case.

B5: 抗人OX40鼠源抗体15A7 (antibody, V domains shown)
VH: QVQLQQSGPGLAKPSQTLSLTCSVTGYSITSDYWNWIRKFPGNKLEYMGYISYSGSTSYNPSLKSRISITRDTSKNQYYLQLSSVTTEDTATYYCARGGYYYGSSYPYYFDYWGQGTTLTVSS
VL: DIVMTQSTKFMSTTVGDRVSITCKASQNVGTAVAWYQQKPGQSPKLLIYSPSNRYTGVPDRFTGSGSGTDFTLTITNVQSEDLADYFCQQYSSYRTFGGGTKLEIK
notes: as for B1
For B5, the binding result (with 人OX40 (Jurkat-OX40细胞) [1]; in assay [2]) was “binds” each time.

B6: 抗人OX40鼠源抗体9G7 (antibody, V domains shown)
VH: EVKLVESGGGLVQPGGSLKLSCAASGFTFSDYYMYWVRQTPEKRLEWVAYISNGDISTYYPDTVKGRFTISRDNAKNTLYLQMSRLKSEDTAMYYCARDDGYSAWFAYWGQGTLVTVSA
VL: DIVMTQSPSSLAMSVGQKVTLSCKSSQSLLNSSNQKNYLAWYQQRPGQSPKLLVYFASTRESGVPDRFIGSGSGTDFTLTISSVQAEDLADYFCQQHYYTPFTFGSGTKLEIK
notes: as for B1
With B6, the binding result (in the assay with 人OX40 (Jurkat-OX40细胞) [1]; in assay [2]) was “binds” in each case.

B7: 抗人OX40人源化抗体3C9 (antibody, IgG1, V domains shown)
VH: QVQLVQSGAEVKKPGASVKVSCKASGYTFTSYIMHWVRQAPGQGLEWIGYINPYNGGSRYNDKFKVRATLTSDKSISTAYMELSRLRSDDTAVYYCARGDYDDGAWFGYWGQGTTVTVSS
VL: DIVMTQSPLSLPVTPGEPASISCKSSQSLLHSNGITYLFWYLQKPGQSPQLLIYRMSNRASGVPDRFSSSGSGTDFTLKISRVEAEDVGVYYCGQNLELPVTFGQGTKLEIK
notes: expressed in 293 cells; also called hu3C9; hu3C9-hIgG1
In the case of B7, the binding result (with 人OX40 (Jurkat-OX40细胞) [3]; in assay [4]) was “binds” each time.

B8: 抗人OX40鼠源抗体3C9 (antibody, V domains shown)
VH: DVQLQQSGPELVKPGASVRMSCKASGYTFTSYIMHWVKQKPGQGLEWIGYINPYNGGSRYNDKFKVKATLASDKSSSTAYMELSSLTSADSAVYYCARGDYDDGAWFGYWGQGTLVTVSA
VL: EIQMTQAAPSVPVTPGESVSISCKSSQSLLHSNGITYLFWYLQRPGQSPQLLIYRMSNRASGVPDRFSSSGSGTAFTLKISRVEADDVGVYYCGQNLELPVTFGAGTKVELK
notes: as for B1
As for B8, the binding result (in the assay with 人OX40 (Jurkat-OX40细胞) [1]; in assay [2]) was “binds” throughout.

B9: 抗人OX40鼠源抗体1A2 (antibody, IgG1, V domains shown)
VH: EVQLKESGPGIVQPSQSLSLTCTFSGFSLATSGVAVGWIRQPSGKGLEWLAHIWWDDVKRYNPSLQGRLTISKDTASSQVFLKISSVDTADTATYYCARMDWDGLAYWGAGTTVTVSA
VL: EIVLTQSPALMAASPGEKVTITCSVSSSISSSNLHWYQQKSETSPKPWIYGTSNLATGVPVRFSGSGSGTSYSLTISSMEAEDAATYYCQQYSSYPFTFGGGTKLEIK
notes: Mouse hybridoma antibody purified by Protein A; also called 1A2-mIgG1
Consider B9, for which the binding result (with 人OX40 (Jurkat-OX40细胞) [1]; in assay [2]) was “binds” throughout.

B10: 抗人OX40人源化抗体3F5 (antibody, IgG1, V domains shown)
VH: EVQLVESGGGLVQPGGSLRLSCAASGFTFGSYAMSWVRQAPGKGLEWVAEISSGGIYTYYADIVTGRFTTSRDNAKNSLYLQMNSLRAEDTAVYYCVRDFDYRFAYWGQGTLVTVSS
VL: DIQMTQSPSSLSASVGDRVTITCKSSQEISGYLAWLQQKPGKAPKRLIYAASSLDVGVPSRFSGSRSGSEYTLTISSLQPEDFATYYCFQYASYPYTFGQGTKLEIK
notes: expressed in 293 cells; also called hu3F5; hu3F5-hIgG1
With B10, the binding result (with 人OX40 (Jurkat-OX40细胞) [3]; in assay [4]) was “binds” throughout.

B11: 抗人OX40鼠源抗体3F5 (antibody, V domains shown)
VH: EVQLVESGGDLVRPGGSLKLSCAASGFTFGSYAMSWVRQSPEKRLEWVAEISSGGIYTYYADIVTGRFTTSRDNAKNTLYLEMSSLRSEDTAMYYCVRDFDYRFAYWGQGTLVTVSA
VL: DIQMTQTTSSLSASLGDRVTISCKSSQEISGYLAWLQQKPDGTVKRLIYAASSLDVGVPSRFSGSRSGSDYSLTISNLEPEDIATYYCFQYASYPYTFGGGTKLEIK
notes: as for B1
On to B11, for which the binding result (with 人OX40 (Jurkat-OX40细胞) [1]; in assay [2]) was “binds” in each case.

B12: 抗人OX40鼠源抗体1G4 (antibody, V domains shown)
VH: RVQLVQSGPELKKPGETVKISCKASGYTFTDYSIHWVKQAPGKGLKWMGWINTETGESTYADDFKGRFVFSSEISATTAYLQINSLKNEDTSTYFCAWVPPWYFDVWGAGTTVTVSS
VL: DIVMTQSTTSLSVSLGDRVTINCRTSQDITNYLNWYQQKPDGTIKLLIYYTSMLKSGVPSRFSGSGSGTDYSLTISHLEQDDIATYFCQQGNTPPLTFGAGTKLELK
notes: as for B1
Consider B12, for which the binding result (with 人OX40 (Jurkat-OX40细胞) [1]; in assay [2]) was “binds” throughout.

The record behind these values is CN112574312A (DONGDA BIOTECHNOLOGY SUZHOU CO LTD, dated 2021).
